Assay results: patent publication US20190106460A1, “BINDING INHIBITORS OF THE BETA. TRANSDUCIN REPEAT-CONTAINING PROTEIN” (priority 2011, published 2019)
Where two headings read alike, the source gives them in different places. Starred links: 1 amine or outer side, 2 acyl side, 3 side chain; linkers in the order of their positions; H or OH if unused. Suc = O=C(CCC(=O)[*:2])[*:1]

Columns and labels:
Fbw7, Q969H0 = target: T1, Fbw7, Q969H0; assay: cell-based or functional assay
T1 chain: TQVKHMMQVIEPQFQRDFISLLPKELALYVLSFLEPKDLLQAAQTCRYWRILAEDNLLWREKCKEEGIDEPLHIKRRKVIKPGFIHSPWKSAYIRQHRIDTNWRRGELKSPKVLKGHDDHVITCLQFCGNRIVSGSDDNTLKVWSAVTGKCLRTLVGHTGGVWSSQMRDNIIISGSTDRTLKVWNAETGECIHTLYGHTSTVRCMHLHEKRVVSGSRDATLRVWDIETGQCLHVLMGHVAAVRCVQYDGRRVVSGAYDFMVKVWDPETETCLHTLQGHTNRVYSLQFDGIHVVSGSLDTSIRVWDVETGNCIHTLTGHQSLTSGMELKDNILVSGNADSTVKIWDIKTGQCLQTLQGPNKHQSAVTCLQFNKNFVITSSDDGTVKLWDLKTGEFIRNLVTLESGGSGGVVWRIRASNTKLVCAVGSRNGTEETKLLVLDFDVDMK

Skp2, Q13309 = assay: cell-based or functional assay
Sequence of Skp2, Q13309 (Q13309 whole entry): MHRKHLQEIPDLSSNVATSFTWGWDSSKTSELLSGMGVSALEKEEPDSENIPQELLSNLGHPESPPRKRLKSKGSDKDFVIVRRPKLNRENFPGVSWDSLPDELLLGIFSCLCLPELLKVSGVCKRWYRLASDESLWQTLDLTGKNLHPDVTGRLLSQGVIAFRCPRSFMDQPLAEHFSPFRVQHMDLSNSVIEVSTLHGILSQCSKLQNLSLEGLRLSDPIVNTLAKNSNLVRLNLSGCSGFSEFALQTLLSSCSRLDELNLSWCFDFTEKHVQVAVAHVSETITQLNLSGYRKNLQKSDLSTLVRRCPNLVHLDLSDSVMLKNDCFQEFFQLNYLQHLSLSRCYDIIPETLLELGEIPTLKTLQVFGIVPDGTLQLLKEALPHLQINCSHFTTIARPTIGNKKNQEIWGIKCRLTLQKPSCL

[1] = target: βTrCP (tag cleaved and complexed with Skp1), Q9Y297; assay: FP competition vs fluorescein-IκB peptide
Sequence of βTrCP (tag cleaved and complexed with Skp1), Q9Y297 (Q9Y297 175-605, chain 1 of 2): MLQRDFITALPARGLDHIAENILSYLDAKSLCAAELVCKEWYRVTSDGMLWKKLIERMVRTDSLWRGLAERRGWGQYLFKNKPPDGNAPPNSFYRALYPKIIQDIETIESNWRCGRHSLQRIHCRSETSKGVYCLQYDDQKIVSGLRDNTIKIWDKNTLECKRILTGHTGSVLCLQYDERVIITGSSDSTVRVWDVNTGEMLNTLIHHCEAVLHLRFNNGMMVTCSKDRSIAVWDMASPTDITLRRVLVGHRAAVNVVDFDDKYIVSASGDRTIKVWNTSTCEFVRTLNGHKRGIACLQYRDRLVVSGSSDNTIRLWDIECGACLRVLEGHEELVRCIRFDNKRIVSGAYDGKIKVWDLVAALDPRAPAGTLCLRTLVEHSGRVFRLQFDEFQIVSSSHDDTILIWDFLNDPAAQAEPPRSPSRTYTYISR
Sequence of βTrCP (tag cleaved and complexed with Skp1), Q9Y297 (P63208 whole entry, chain 2 of 2, further chain): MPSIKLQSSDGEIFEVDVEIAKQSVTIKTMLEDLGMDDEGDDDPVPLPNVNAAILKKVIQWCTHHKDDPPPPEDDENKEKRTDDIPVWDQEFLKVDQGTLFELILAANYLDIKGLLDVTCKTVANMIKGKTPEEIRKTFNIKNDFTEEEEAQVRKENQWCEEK

[2] = target: βTrCP (tag cleaved and complexed with Skp1), Q9Y297; assay: FP competition vs fluorescein-IκB peptide; remark: listed apart in the source
[3] = target: HisβTrCP/Skp1 and HisβTrCP/GSTSkp1 (immobilised on NTA Biacore chip), Q9Y297; assay: SPR, Biacore T200, βTrCP/Skp1 immobilised
Sequence of HisβTrCP/Skp1 and HisβTrCP/GSTSkp1 (immobilised on NTA Biacore chip), Q9Y297 (Q9Y297 175-605, chain 1 of 2): as the sequence (Q9Y297 175-605, chain 1 of 2) above
Sequence of HisβTrCP/Skp1 and HisβTrCP/GSTSkp1 (immobilised on NTA Biacore chip), Q9Y297 (P63208 whole entry, chain 2 of 2, further chain): as the sequence (P63208 whole entry, chain 2 of 2, further chain) above

- % Inhibition Fbw7 @ 10 µM (Fbw7, Q969H0): 0%
- % Inhibition Fbw7 @ (100 µM) (Fbw7, Q969H0): 0%
- % Inhibition Skp2 @ 10 µM (Skp2, Q13309): 11%
- % Inhibition Skp2 @ (100 µM) (Skp2, Q13309): 28%
- IC50 [1]: 1000 nM
- IC50 [2]: 1040 nM
- Kd [3]: 537 nM
B1: Suc-EGYFE-NH2 (peptide)
peptide: Suc-EGYFE-NH2
SMILES: NC(=O)[C@H](CCC(=O)O)NC(=O)[C@H](Cc1ccccc1)NC(=O)[C@H](Cc1ccc(O)cc1)NC(=O)CNC(=O)[C@H](CCC(=O)O)NC(=O)CCC(=O)O
